Residue numbers refer to the chain shown, from its start. Blank lines part the entries; values can stand above or below the binder they belong to.
Legend:
[1] = target: T1, recombinant human IL-23R-IgG chimera (R&D Systems) (human, UniProt Q5VWK5 24-353, glycosylated); assay: SPR, REX125-TolA-AVI immobilized, IL-23R-IgG chimera flowed, sodium acetate buffer pH 5.0, 25°C; more complex interaction mode
T1 construct: bought; soluble, glycosylated, secreted by an NS0-derived mouse myeloma cell line; also called IL-23R-IgG receptor chimera

[2] = target: T2, native human IL-23 receptor on the surface of cultured human cells (K-562, THP-1, Jurkat) and primary human … (human, UniProt Q5VWK5 24-629); assay: cell-based or functional assay
T2 sequence (looked up): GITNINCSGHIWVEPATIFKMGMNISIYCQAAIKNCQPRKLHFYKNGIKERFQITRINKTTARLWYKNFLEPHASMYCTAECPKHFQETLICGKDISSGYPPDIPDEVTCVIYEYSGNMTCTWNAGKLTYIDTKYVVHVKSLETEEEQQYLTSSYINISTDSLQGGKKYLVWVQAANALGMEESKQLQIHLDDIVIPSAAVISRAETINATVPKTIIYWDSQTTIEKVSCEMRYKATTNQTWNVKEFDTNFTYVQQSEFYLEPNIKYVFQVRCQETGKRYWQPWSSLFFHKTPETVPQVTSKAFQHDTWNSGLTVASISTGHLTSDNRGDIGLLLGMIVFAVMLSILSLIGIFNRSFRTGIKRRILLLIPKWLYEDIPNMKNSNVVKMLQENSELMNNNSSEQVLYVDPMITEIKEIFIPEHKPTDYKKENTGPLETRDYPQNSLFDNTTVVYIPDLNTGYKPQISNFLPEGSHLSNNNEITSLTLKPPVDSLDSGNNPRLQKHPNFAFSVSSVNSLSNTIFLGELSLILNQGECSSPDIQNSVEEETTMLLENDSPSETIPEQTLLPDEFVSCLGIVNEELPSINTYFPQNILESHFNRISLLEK

[3] = target: T1, recombinant human IL-23R-IgG chimera …; assay: SPR, REX009-TolA-AVI immobilized, IL-23R-IgG chimera 20-200 nM flowed, sodium acetate buffer pH 5.0, 25°C, 1:1 model, global fit
[4] = target: T2, native human IL-23 receptor on the …; assay: flow cytometry on THP-1 and K-562 cells, 10 µg/ml DH-p19, anti-p19 mAb and Cy5 anti-mouse IgG
[5] = target: T3, H-exIL-23R, N-terminally His6-tagged extracellular domain of human IL-23 receptor (residues 24 to 350) (human, UniProt Q5VWK5 24-350); assay: ELISA, immobilized H-exIL-23R; confirmed in the reversed setup
T3 construct: range 24-350; also called recombinant extracellular IL-23 receptor; not shown: N-terminal His6 tag
T3 sequence (looked up): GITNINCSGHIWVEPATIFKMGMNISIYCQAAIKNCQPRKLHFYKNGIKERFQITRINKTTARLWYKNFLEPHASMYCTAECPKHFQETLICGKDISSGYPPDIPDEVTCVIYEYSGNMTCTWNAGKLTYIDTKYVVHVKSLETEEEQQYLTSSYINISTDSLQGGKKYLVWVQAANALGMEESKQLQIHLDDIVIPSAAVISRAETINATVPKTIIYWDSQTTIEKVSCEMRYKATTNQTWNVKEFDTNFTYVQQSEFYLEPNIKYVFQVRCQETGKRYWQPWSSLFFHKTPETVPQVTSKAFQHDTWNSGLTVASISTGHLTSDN

[6] = target: T3, H-exIL-23R, N-terminally His6-tagged …; assay: ELISA, immobilized exIL-23R (Figure 1 legend)

- Kd [1]: ~1 nM
- Th-17+ cell expansion (IL-17-producing cells) in PBMC suspensions after 3 days, normalized to IL-23 only = 1 [2]: 0.42 normalized cell count (IL-23 only = 1)
- Th-17+ cell expansion in separated T-cell samples after 3 days, normalized to IL-23 only = 1 [2]: 0.65 normalized cell count (IL-23 only = 1)
B1: His6-REX125-TolA-AVI (designed binder)
chain: LAEAKVLANRELDKYGVSDHYKNWINPARRVRPVKWLIDAILAALPQKQAEEAAAKAAADAKAKAEADAKAAEEAAKKAAADAKKKAEAEAAKAAAEAQKKAEAAAAALKKKAEAAEAAAAEARKKAATEAAEKAKAEAEKKAAAEKAAADKKAAAEKAAADKKAAEKAAAEKAAADKKAAAEKAAADKKAAAAKAAAEKAAAAKAAAEADDIFGELSSGKNAPKTGGGAKGNNASPAGSGNTKNNGASGADINNYAGQIKSAIESKFYDASSYAGKTCTLRIKLAPDGMLLDIKPEGGDPALCQAALAAAKLAKIPKPPSQAVYEVFKNAPLDFKPGLNDIFEAQKIEWHE
modifications: in vivo biotinylated at the AviTag (BirA)
notes: also called REX-TolA-AVI; not shown: N-terminal His6 tag

- Th-17+ cell expansion (IL-17-producing cells) in PBMC suspensions after 3 days, normalized to IL-23 only = 1 [2]: 0.62 normalized cell count (IL-23 only = 1)
- Th-17+ cell expansion in separated T-cell samples after 3 days, normalized to IL-23 only = 1 [2]: 0.8 normalized cell count (IL-23 only = 1)
- Kd [3]: 1.3 nM
B2: His6-REX009-TolA-AVI (designed binder)
chain: B1 chain with H20Y, W24R, R29C, R30H, R32L, P33S, W36S, L37N, A40W, A44S
modifications: in vivo biotinylated at the AviTag (BirA)
notes: as for B1

- Th-17+ cell expansion (IL-17-producing cells) in PBMC suspensions after 3 days, normalized to IL-23 only = 1 [2]: 0.55 normalized cell count (IL-23 only = 1)
- Th-17+ cell expansion in separated T-cell samples after 3 days, normalized to IL-23 only = 1 [2]: 0.69 normalized cell count (IL-23 only = 1)
B3: His6-REX115-TolA-AVI (designed binder, not shown: small tags and cut ends)
chain: B1 chain with H20V, W24T, P27I, R29I, R30P, P33V, W36R, L37V, A40W, A44V
modifications: in vivo biotinylated at the AviTag (BirA)

- binding result [4]: binds
- binding result [5]: binds
B4: DH-p19, mature p19 subunit of human IL-23 with N-terminal double-His6-TEV tag (ligand, UniProt Q9NPF7 20-189, looked up)
chain: RAVPGGSSPAWTQCQQLSQKLCTLAWSAHPLVGHMDLREEGDEETTNDVPHIQCGDGCDPQGLRDNSQFCLQRIHQGLIFYEKLLGSDIFTGEPSLLPDSPVGQLHASLLGLSQLLQPEGHHWETQQIPSLSPSQPWQRLLLRFKILRSLQAFVAVAARVFAHGAATLSP
notes: mature; not shown: N-terminal double-His6-TEV purification tag

- binding result [6]: binds
B5: DH-MBP-p19, double His6-maltose-binding protein-p19 fusion with C-terminal 40 aa prolongation (ligand, human)
chain: RAVPGGSSPAWTQCQQLSQKLCTLAWSAHPLVGHMDLREEGDEETTNDVPHIQCGDGCDPQGLRDNSQFCLQRIHQGLIFYEKLLGSDIFTGEPSLLPDSPVGQLHASLLGLSQLLQPEGHHWETQQIPSLSPSQPWQRLLLRFKILRSLQAFVAVAARVFAHGAATLSPLEKKTCTSRASSTTTTTTEIRLLTKPERKLSWLLPPLSNN
notes: 69 kDa, soluble, E. coli BL21(DE3), Ni-NTA purified; also called soluble p19; p19-MBP fusion protein; not shown: N-terminal double His6 tag; followed by TEV site and cloning-site residues that are not pri
